The source of these data is patent US11286304B2, “Anti-galectin-7 antibody, kit comprising the same, and uses thereof” (Academia Sinica, priority 2018, dated 2022).

Format in all cases: cell-based, human
The test system of one assay is IL-6. Nature of the assay: IL-6 production by keratinocytes (ELISA). The note with it: HaCaT and HEKn cells subjected to immune stimuli, ELISA. The protocol: (§1) To measure the concentrations of proinflammatory cytokines secreted by keratinocytes, 2×10^4 cells were seeded in 96-well plates. Cells were incubated for 24 hours and then treated with 50 μg/ml LPS, 100 ng/ml human TNF-α, 100 or 200 ng/ml human IL-17A, 200 ng/ml human IL-22, 100 ng/ml human IL-23, or 50 ng/ml IFN-γ at 37° C. for 48 hours. In addition, the MEK inhibitor PD98059 was added along with stimulation by LPS or IL-17A (48 hours). The supernatants were then collected and analyzed by ELISAs, which were performed using a specific combination of paired antibodies (capture and detection antibodies).
On the technique in general: An ELISA detects its analyte on a solid surface through an enzyme-linked reagent.

The next assay has as its system IL-8. Nature of the assay: IL-8 production by keratinocytes (ELISA). The note with it: HaCaT and HEKn cells subjected to immune stimuli, ELISA. The protocol:
as §1

A further assay relates to galectin-7. Nature of the assay: Galectin-7 expression in keratinocytes (real-time PCR, immunoblot). The note with it: HaCaT cells, treated with cytokines for 2 days, immunoblot. The protocol:
Human keratinocyte cell line HaCaT was maintained at 37° C. in Dulbecco's modified Eagle's medium (DMEM) supplemented with 10% of fetal bovine serum (FBS), 2 mM glutamine, 100 U/ml penicillin and 100 μg/ml streptomycin. Short hairpin RNA (shRNA) reagents were obtained from the National RNAi Core Facility located at the Institute of Molecular Biology and Genomic Research Center, Academia Sinica, supported by the National Core Facility Program for Biotechnology Grants of NSC. Four shRNAs with clone IDs of TRCN0000057393, TRCN0000057394, TRCN0000057395, and TRCN0000057396 were used to generate stable galectin-7 knockdown HaCaT clones. HaCaT cells were infected with one of the four shRNA-expressing lentiviruses and puromycin was employed to select stable cell clones after 3 days of infection. After puromycin selection, four individual pooled clones were cultured in puromycin-free medium for 2 weeks before further analysis. […]
Cells were harvested and lysed in RIPA lysis buffer containing 1% of Triton X-100 and a protease inhibitor cocktail, and total protein concentrations were measured with a protein assay kit. Proteins in the samples of the lysates with the same amounts of total protein were separated by sodium dodecyl sulfate polyacrylamide gel electrophoresis (SDS-PAGE) and analyzed by immunoblotting. […] Protein quantification was performed by software. […]
In general terms: Real-time PCR tracks product formation cycle by cycle.

B1: IL-22: immune stimulus (protein, UniProt Q9GZX6 34-179, looked up)
Interleukin-22: APISSHCRLDKSNFQQPYITNRTFMLAKEASLADNNTDVRLIGEKLFHGVSMSERCYLMKQVLNFTLEEVLFPQSDRFQPYMQEVVPFLARLSNRLSTCHIEGDDLHIQRNVQKLKDTVKKLGESGEIKAIGELDLLFMSLRNACI
For the molecule B1, the IL-6 production entry with IL-6 is “only IL-17A (FIG. 2), TNF-α, and LPS (data not shown) induced”. For the same molecule, in the assay on IL-8, the IL-8 production entry was “only IL-17A (FIG. 2), TNF-α, and LPS (data not shown) induced”.

B2: IL-23: cytokine known to promote psoriatic inflammation (protein, UniProt Q9NPF7 20-189; P29460 23-328, looked up)
Interleukin-23 subunit alpha: RAVPGGSSPAWTQCQQLSQKLCTLAWSAHPLVGHMDLREEGDEETTNDVPHIQCGDGCDPQGLRDNSQFCLQRIHQGLIFYEKLLGSDIFTGEPSLLPDSPVGQLHASLLGLSQLLQPEGHHWETQQIPSLSPSQPWQRLLLRFKILRSLQAFVAVAARVFAHGAATLSP
Interleukin-12 subunit beta: IWELKKDVYVVELDWYPDAPGEMVVLTCDTPEEDGITWTLDQSSEVLGSGKTLTIQVKEFGDAGQYTCHKGGEVLSHSLLLLHKKEDGIWSTDILKDQKEPKNKTFLRCEAKNYSGRFTCWWLTTISTDLTFSVKSSRGSSDPQGVTCGAATLSAERVRGDNKEYEYSVECQEDSACPAAEESLPIEVMVDAVHKLKYENYTSSFFIRDIIKPDPPKNLQLKPLKNSRQVEVSWEYPDTWSTPHSYFSLTFCVQVQGKSKREKKDRVFTDKTSATVICRKNASISVRAQDRYYSSSWSEWASVPCS
As for B2, in the assay on IL-6, the IL-6 production entry was “only IL-17A (FIG. 2), TNF-α, and LPS (data not shown) induced”. The IL-8 production result in the assay on IL-8 is “only IL-17A (FIG. 2), TNF-α, and LPS (data not shown) induced”. Moreover, in the assay on galectin-7, the galectin-7 protein expression entry is on record as “modest effects”.
